# Measurements taken from the DeepSol protein solubility set.
# Assay: soluble on expression in E. coli; label from the status in PepcDB or PDB records
row,Sequence,soluble on expression in E. coli
1,MSETIEIDELVFSVKRSTRRRTVGVTVERDKSLVAHLPQGVALDVATRLIASKLLWVHQKLAEHGETARDDVFRIPEFVDGEGFHLLGKHYRLKLVDVPKNVTGVPSVRFEGDRILLRREQAASGGKRIEEYYTRAAHPYLNETVQRWKRIVGVEPGRFVQVMDLGYRWGSCSEDGTLNFHWRTMQLPPRIIEYVVVHELVHIKVPNHSEKFWKMIGSVMPDYESRKAWLKQKGGELLEHHHHHH,not soluble
2,MSETVSVESSVDSNINQDVNIRATYLGAHELKLAASLLYQAYHDDPVFLDIFKSDKEDYEQRLRGAIREELNAFWQAKQPMIGLYLGEAMVGVACINSPDETLASDRFWHWRLKMLLNAGYFSTKQMMQKEHTVLAAVPLKIFHFLSFIAVHPLHQQHGFGHYLMAAVNTVLDEHPDSEGVAVYATSGKFKEFFKQVDYHTVKEVTVGNVCGSVMVHYRDKEE,soluble
3,MSEVKVITGTSAAAEAAKLADVDVIAAYPITPQTTCVEKLADFVANGELNAEYIKVESEHSAMSASIAASATGARTFTATSSQGLALMHEVLFAAAGMRVPVVMMNANRALSAPINIWNDQQDSLSQRDTGWIQLYAEDNQEVLDLVIQAFKIAEDEKVLLPVMVNLDGFILTHTVEPVTLPKQESVLDFIGSYEPKHAYLDPKKPMTQGSLGDPNYYMETRYAIETAMRNAEKVIADVHDAFAEKFNRAYGNGLIESYNLEKAENVIVAMGSICGTIKDMIDLKKKEGVEIGLLKIRCYRPLPVEMIKDALKNAKNVAILDKSISLGMNKGAIYADVASFLKDKKTVNYIVGLGGRDITPEDILGIYVDVETSEDGKTNWVGLKEE,not soluble
4,MSEVTRSLLQRWGASLRRGADFDSWGQLVEAIDEYQILARHLQKEAQAQHNNSEFTEEQKKTIGKIATCLELRSAALQSTQSQEEFKLEDLKKLEPILKNILTYNKEFPFDVQPI,soluble
5,MSEYNPCLDCGACCGYFRVSFFWGECQSAGGVVPDDLVVQINPTRVAMIGTDAKPCRCVSLQGEIGKEVACTIYANRSSPCREFDASWEGGVHNPSCDDARAAYGLPPLTPPEANEPHWPDDGAEVALEHHHHHH,soluble
6,MSFCSFFGGEVFQNHFEPGVYVCAKCSYELFSSHSKYAHSSPWPAFTETIHPDSVTKCPEKNRPEALKVSCGKCGNGLGHEFLNDGPKRGQSRFCIFSSSLKFVPKGKEAAASQGHLEHHHHHH,soluble
7,MSFFNPPANSNHGYNDDVNTGYNARMHSKLAEREGFHLGNGSDEPRTLYVGNLDSTVTEDFIATLFNQIGSVTKTKVIFDGSNDPYAFVEFSDHGQASQALQTMNKRLLLDREMKVNWAVEPGQQQSKIDTTRHFHVFVGDLSSEVDNQKLREAFQPFGDVSDAKVIRDTNTTKSKGYGFVSYPKREEAERAIEQMNGQWLGRRTIRTNWATRKPGDQEKPSHYNEKSYDEIYNQTSGDNTSVYVGNIASLTEDEIRQGFASFGRITEVRIFKMQGYAFVKFDNKDAAAKAIVQMNNQDVGGQLVRCSWGKTGDTGKTPGGSYGYGYGNSSSGGNSQPYSGYGGGGAYGGGQGGGGHGGPGQQQSNANSQYWQYYAQYYNNPQLMQQWSNYWQQQGGAPQQQNSGGHQ,not soluble
8,MSFFVNRIWYGNHFLQWILVPFSWLYRIVIRTRRWYLQRFCQQLYPIPIIVVGNVTVGGVGKTPLVIEIAKKIQQKGLKVGIVSRGYKAAIKHFPYEVKLNDSAELVGDEPLMMARKINCPVVIAPKRNEAVRYLLDKHSVEIIISDDGLQHYKMGRSIEIVVIDGMRKLGNGFCLPAGPLREPDSRLKQVDFVIVNQGAAEGTYSMELIPKNIVRLSTQEEVSNDLFTSEVAAVAGIGNPQRFYSTLSQLGIKFNPYSYPDHHQFKPHDLNDIDLPVIMTEKDAVKCYSFSSDKLYYLPVEAKLNDSFWEAFWSHQQLQGYYLEHHHHHH,not soluble
9,MSFLKCGVCTEDYSNVITNRHPKNLTCGHSICKACSSKLVSNFKILCPFCRKTTELRENENLQTNFALLEAISLFNDINESVTEPRSSGAPPNCEEHTYNLAEFVCISPNCSSRSKLMCRTCEEFGVHAGHRKGLLQVEAKKVRQNLLERQRKLQVNKKQVDDKIQALEKAALKKNDELYKEKYDEITRHYDRIRSSVAEREKTSKEVLKKSVLTSEEDNRMGQISNHVIRHLLEKKCEEVEQLVGMTDFELYRVKDKVDWNDESFSFSDVKEKPPMELKTLHVKLPEFRFEDSS,not soluble
10,MSFNPTRDDFEALLNDSMGGRDFAEGTVVKGKVVGIEKDFAIIDVGLKTEGRVQLKEFGVDENGKATVKAGDTVEVFLERLENAMGEAVISREKAKREEAWTRLEGVYARNEPVMGAIVGRVKGGFTVDLGGASAFLPGSQVDIRPVRDVGPLMGKEQPFAILKMDRPRGNIVVSRRAILEEARAEQRTELVSQLQEGEIREGVVKNITDYGAFVDLGGIDGLLHVTDMSWKRVNHPSQVLAVGDTVKVQIVKINPDTQRISLGMKQLQSDPWDGVEAKYPVGAKFTGRITNITDYGAFVELEAGVEGLVHVSEMSWTKKNVHPGKIVSTSQEVDVVVLDVDPSKRRVSLGLKQALANPWEAFLEAHPVGSTVEGEVKNATEFGLFVGLDNDIDGMVHLSDIDWSVPGEEAMARYKKGDMVKAKVLDVDVEKERISLGIKQLAGDPMSGDTYRKNQTVTVTVTEVTSGGIEVRFGEDDAPMTAFIRKSDLSRDRQEQRPERFAVGDRVDAQITNVDKAARRVSLSIKSLEMAEEKEAIEQFGSSDSGASLGDILGAALRERASKD,soluble
11,MSFPTSITDHPIVQEAVHRLDDLGDPRAGQTLTRCLNDTLARTIRPMPDGTAFVVTGDIPAMWLRDSSTQMMPYLALLKDDTALQHLLLAVLRRQFQQIAHDPYANAFNAEPSGRAHDPEDLCGDPWVWEQKYEVDSLAFPLLLAHRFWAATGRTDHVPGMLRTARTVISVWRTEQDHERLSTYRFRRENGPSSDTLPNAGRGTPVTRTGMTWSGFRPSDDACAFGYNVPANLCAAAALDGAAELAHHTHDTELAEDAARLAAELRAATARHGTVRHPDFGSIYAYEVDGNGNAVLMDDANMPGLLSLPLVANIPTTDPVYLATRGFVLSPRNPTWYRGTAAEGIGSPHTPDEHIWPIAIAVQGLTSNDTTERRWALTTLLATDAGTGQMHESFHKDDPHRFTRPWFSWANAMYAELALDTVGLGTRPLWQAGTLEHHHHHH,soluble
12,MSFQLHPDTTLDVVHLYVSNVKKSLEFYTEVLSMKVLKEEEAVVTFGNENDEPLLIIEEKKEAFPKQRGRTGLYHYAILLPSRQDLANVLRHLVEMVYPLHGGADHYFSEALYLADPDGNGIEIYHDRQKEVWRDENGELPFVSNPLAGEELLQQGSTWNGFPAGTVMGHIHFHVADLEEAKCFYVDGLGFEVTIPARNGALFVSAGGYHHHIGLNTWQGEGVPPQMPGSVGLKYFTIVLADEKQKEQVCESLKNIGKIATYKDGILQVEDPFGHCIHFKIKGEA,not soluble
13,MSFQQPQASPISPGDSGWLIKMRKNRYLDHTSKVNEPKKYRSMDQLPTGKVGAPDNEKSEGTDPLHWQLRKDFHLAKYSERRASYHVESSSYIHSSQQIQHPPQQHHPPPPSPPPVAETIQHQPHPSQQQPSTTTISSRQLYKSQLLYPPGSTENIASEHKPAIRPPEKSVYENNPIAPSELNVQVKRAPPQGPPPPPPPQAPADIDYPERLMSPPPTHQPRSILKGYSSQQYYSQTNLTESHHHQSSQETSLNPQQMHPRPSDRRTPTHFEDLSEDEKTRIMHENLQRHRNMRSGPNGPRPTTTSFNGPFFRLEQVNPGQNQPQQPQYQQHPRSQSVDPSGDMNGGPRPIHQNFSASEIELHHYSRNAEPSVVVWPPVSEKERERPSSVLAKNFNDPERIDEYQRQKRLEYEAIQRTNEKQAVSMAKQVNAMMQQQKLYERSHGMTSPVPIMESISPQPQVSHHHHQPQQHQQHQPQQQYYPSPPPPPQPYRDPEPVFNPVQVYETRPISALSDQIDQPPSQQAPTSWKRTYIVERPRDVAKNEIITSDQLLEKEAYDVDLLKRRETFVEKPEEAPRINRLGRRWQPPPERPYVWPTLRRAMSVEPSSMPVDFAPGVPHNYDDNEEYKWEPVVNDPGYKKEDKNFTPVNSPPASPRRGHGVGPLDEPARRQAKYVIQPSPDGSHRPKAVFRKERHAPSGGFYPHAPNAIKVVKKRAQSVQGLLSPTDNVEVIHQRNYHRLDLEQNGHHGQKLRRSQHGGSEMDLRRSTQEMPDWEKIYELPPHSSQIVQKDMPRHVDVQRRLSKFEGSIQNLRAATSTQHLDSMQQLHFPMPDYEPPQPPQQRRRTESSGYRGGPPPPPPMPQQQPREMSRRNSVASTRIDSPSLMIPHHRQSRSDSRGPPQMSRAASSIPLSPQPTPQHHHHHHSQRPTTPGATRARNYIARATAPSPTPYSYDRARAYVPPALPPGYRLADPIPDQRAMSPSPGHTRKLIRNVSESAQRLHPSGSTPQTSRAPSRHSHRQSPNPRFL,not soluble
14,MSGFDLIIFDCDGVLVDSEIIAAQVESRLLTEAGYPISVEEMGERFAGMTWKNILLQVESEASIPLSASLLDKSEKLLDMRLERDVKIIDGVKFALSRLTTPRCICSNSSSHRLDMMLTKVGLKPYFAPHIYSAKDLGADRVKPKPDIFLHGAAQFGVSPDRVVVVEDSVHGIHGARAAGMRVIGFTGASHTYPSHADRLTDAGAETVISRMQDLPAVIAAMAEWEGAF,soluble
15,MSGKRKLEDYKSIIGEEEVSKIQEKAEKLKGRSFVHVNSTSFGGGVAEILHSLVPLLRSIGIEARWFVIEGPTEFFNVTKTFHNALQGNESLKLTEEMKELYLNVNRENSKFIDLSSFDYVLVHDPQPAALIEFYEKKSPWLWRCHIDLSSPNREFWEFLRRFVEKYDRYIFHLPLEHHHHHH,not soluble
16,MSGRPFLLIHTFKDISKFREGDRDYSDIEVRYNIPWRLRIFKKEGFLGLKLYCEKEECIETKKWTFKTKFTMKLVAVDLPSSQSDFNNSFLLKHTFNNISKFVERDSDYSDAEDHYNIAWKIRILKYEECLGIYLDCQKEIYEGRKWSIKCEFKSSLISASGKFYSVQYTDVFDNRDSSMGSSTFISWIDMEKEYVTNDDCIDVTIHAKIISITDEPCEMKTFALSHTIKNMSSIREGEDYDTDTQYRFNIPWSLKILNRNEFSGLFIRCEKQLCKSRKWSIETEYQLKIVSPNGRSELFGGTYVFDNPNIYGWHIIRWSSLEDRYIVNDTLTVEAQVTIVKMTGIEDETPIEKPSGIVIPVGNQEFSLERWMEMAFDH,not soluble
17,MSGSHHHHHHSSGIEGRGRLQTRQDVLYLYNWTYYTPTSLIKKFEQQYNVQVVYDDYASNEDMFAKLSIGASGYDLVVPSGDFVSIMKRKHLLEKIDLSKIPNVQFIKESVRARIAYDPKMEYSVPYYLGAAGIAVNKKAVPSYARTWSIFSRKDLAYRMSMMDDMREVMGAALASLGYNVNTKNEQELAQAAILVTDHWKPNLVKFDSDGYAKSFASGDFVVAHGFAEAFFAETPEAMHEHIDFFIPQDVASPVYVDSFCIPKGARNRDLAHAFINFFLEPAHYAEFLDTFGFPSTIHREAAAYQKKTPYYSEHDLERGTLKTDVGAAIEHYNAHWNAVRFR,soluble
18,MSHDVKELIEGLNEDLAGEYSAIIMYNHNAATVSGIYRQVLKPFFESEISDEQGHALYLAEKIKTLGGTPTTIPLRVKQAEDVREMLEYARQSEYETIKRYEKRKEQAANLNMTELVVKLEDMIADETNHMEELDRLLNDKAMVLN,soluble
19,MSHLYDPTTQYYTGEYPKQKQPAPGVQAKMTPVPDCGEKSYVGSGRLKDRKALVTGGDSGIGRAAAIAYAREGADVAINYLPAEEEDAQQVKALIEECGRKAVLLPGDLSDESFARSLVHKAREALGGLDILALVAGKQTAIPEIKDLTSEQFQQTFAVNVFALFWITQEAIPLLPKGASIITTSSIQAYQPSPHLLDYAATKAAILNYSRGLAKQVAEKGIRVNIVAPGPIWTALQISGGQTQDKIPQFGQQTPMKRAGQPAELAPVYVYLASQESSYVTAEVHGVCGGEHLG,not soluble
